{"source": "patent US9567576B2", "about": "“Strain expressing FRSA and method for producing ethanol using same” (SOGANG UNIVERSITY RESEARCH FOUNDATION, priority 2012, dated 2017)", "key": {"[1]": {"target": "Vibrio vulnificus FrsA, wild type, SEQ ID NO: 2, + phospho-IIA^Glc (Vibrio vulnificus, UniProt Q8DF91)", "sequence (Q8DF91 whole entry)": "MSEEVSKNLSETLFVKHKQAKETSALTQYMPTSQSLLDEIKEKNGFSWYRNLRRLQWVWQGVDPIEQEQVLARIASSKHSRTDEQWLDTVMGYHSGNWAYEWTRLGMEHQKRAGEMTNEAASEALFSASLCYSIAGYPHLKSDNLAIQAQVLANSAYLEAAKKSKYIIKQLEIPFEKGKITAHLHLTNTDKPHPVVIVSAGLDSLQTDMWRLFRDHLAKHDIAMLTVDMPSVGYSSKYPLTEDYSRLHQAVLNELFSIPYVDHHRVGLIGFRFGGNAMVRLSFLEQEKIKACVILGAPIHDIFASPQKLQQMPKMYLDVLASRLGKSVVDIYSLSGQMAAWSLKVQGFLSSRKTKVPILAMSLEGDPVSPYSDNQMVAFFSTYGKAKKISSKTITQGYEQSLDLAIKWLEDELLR", "sequence (A0A3Q0L1G8 entry or part of it, further chain)": "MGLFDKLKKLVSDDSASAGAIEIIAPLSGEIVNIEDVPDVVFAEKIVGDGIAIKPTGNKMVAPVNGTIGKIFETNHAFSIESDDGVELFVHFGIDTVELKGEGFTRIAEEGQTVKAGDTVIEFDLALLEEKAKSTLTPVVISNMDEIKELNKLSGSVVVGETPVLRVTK", "assay": "FrsA pyruvate decarboxylation in the presence of phospho-IIA^Glc", "type": "biochemical", "text": "(§1) Genomic DNA from V. vulnificus(3) was used as template and as primers Crrexp-F (5′-[…]-3′(SEQ ID NO: 13); BamHI restriction site is underlined) and Crrexp-R (5′-[…]-′3(SEQ ID NO: 14); PstI restriction site is underlined) are used to amplify crr gene of 522-bp in size encoding full length IIA^Glc. The amplified products were then digested with BamHI and PstI and cloned into a vector pQE30 to obtain pQE-crr. Phosphorylated and non-phosphorylated recombinant IIA^Glc proteins were overexpressed in E. coli JM109 in a medium comprising 1.0 mM phophoenolpyruvate or 1.0% glucose, respectively. […]\n(§2) FrsA enzymatic analysis was performed in 50 mM sodium phosphate solution (pH 7.0) containing 1 mM DTT and various concentrations of pyruvate. […] The residual NADH in the reaction mixture was determined by measuring absorption at 340 nm. […] The amount of carbon dioxide dissolved in the reaction solution was quantified by spectrophotometry after the reaction solution was treated with 10 mM calcium hydroxide (10). Concentrations of the pyruvate and acetaldehyde in the cell lysates and reaction mixtures were determined using Pyruvate Assay Lit (BioVision, USA) and Acetaldehyde UV-method kit (Roche, USA), respectively according to the manufacturer's instruction. […]\n(§3) Values of Km and Kcat were calculated as follows. […]"}, "[2]": {"target": "Vibrio vulnificus FrsA, wild type, SEQ ID NO: 2, + dephospho-IIA^Glc (Vibrio vulnificus, UniProt Q8DF91)", "sequence (A0A3Q0L1G8 entry or part of it)": "as the sequence (A0A3Q0L1G8 entry or part of it, further chain) above", "sequence (Q8DF91 whole entry)": "as the sequence (Q8DF91 whole entry) above", "assay": "FrsA pyruvate decarboxylation in the presence of dephospho-IIA^Glc", "type": "biochemical", "text": "as §1, §2, §3"}, "[3]": {"tested_on": "CC(=O)C(=O)O", "assay": "FrsA-catalysed pyruvate decarboxylation, ADH/NADH coupled acetaldehyde assay", "type": "biochemical, Vibrio vulnificus", "conditions": "other: wild-type FrsA, pH 7.0, 37° C., 1 nM FrsA", "description": "FrsA enzymatic analysis was performed in 50 mM sodium phosphate solution (pH 7.0) containing 1 mM DTT and various concentrations of pyruvate. To measure the amount of acetaldehyde produced from pyruvate, 2 mM NADH and 3.7 U of […] was added to the FrsA reaction mixture (8). Cell lysates from wild-type E. coli and frsA mutants (9) were used in the range of 0.005 to 1 mg in amount. The acetaldehyde reaction was initiated by adding FrsA (1 nM) and incubated at 37° C. for 5 min and stopped by adding 50 mM potassium hydrogen phthalate buffer (pH3.0). The residual NADH in the reaction mixture was determined by measuring absorption at 340 nm. For CO2 measurement, FrsA enzyme reaction was performed in 50 mM Tris-HCl buffer (pH 7.0). The amount of carbon dioxide dissolved in the reaction solution was quantified by spectrophotometry after the reaction solution was treated with 10 mM calcium hydroxide (10). Concentrations of the pyruvate and acetaldehyde in the cell lysates and reaction mixtures were determined using Pyruvate Assay Lit (BioVision, USA) and Acetaldehyde UV-method kit (Roche, USA), respectively according to the manufacturer's instruction. To increase the sensitivity of the Acetaldehyde UV-method kit, the reaction mixture was additionally treated with dye (50 ml of 1.0% Tween 20 solution containing 40 mg iodonitrotetrazolium chloride and 10 mg phenazine methosulfate) followed by absorption measurement at 490 nm (11).\nValues of Km and Kcat were calculated as follows. The concentration of reaction products were calculated in the mM unit from the absorption values which were obtained for a total of 1 min for each substrate concentration (S). Then initial reaction rate (Vo) for each concentration of the substrate was determined (here the unit is mM(product)/sec/mg(enzyme)). […] Keat value expressed in the unit of sec^−1 was calculated by changing the unit weight of the enzyme to the concentration in mM in the calculated Vmax (mM(product)/sec/mg(enzyme))."}}}
{"molecule": "CC(=O)C(=O)O", "note": "[pyruvate]", "values": [{"measurement": "Km", "setting": "[1]", "value": "390 ± 10", "unit": "µM"}, {"measurement": "Km", "setting": "[2]", "value": "390 ± 30", "unit": "µM"}]}
{"molecule": "Vibrio vulnificus FrsA, wild type, SEQ ID NO: 2 (Vibrio vulnificus CMCP6)", "values": [{"measurement": "Km", "setting": "[3]", "value": "390 ± 20", "unit": "µM"}, {"measurement": "kcat", "setting": "[3]", "value": "1372 ± 11", "unit": "s⁻¹"}, {"measurement": "kcat/Km", "setting": "[3]", "value": "3.52e+06 ± 183000", "unit": "M⁻¹ s⁻¹"}]}
